# B1: h4B10-1 (VH3-15-Vκ3-11) scFv (scFv)
# scFv: MEVQLVESGGGLVKPGGSLRLSCAASGFTFSTYGMSWVRQAPGKGLEWVATISGGGSNTYYSDSVKGRFTISRDDSKNTLYLQMNSLKTEDTAVYYCARQRDSAWFASWGQGTLVTVSSGGGGSGGGGSGGGGSEIVLTQSPATLSLSPGERATLSCRASENVDDYGVSFMNWYQQKPGQAPRLLIYPASNQGSGIPARFSGSGSGTDFTLTISSLEPEDFAVYYCQQSKEVPWTFGQGTKVEIKGSGDYKDDDDKGSGHHHHHH
# notes: Whole scFv chain with FlagHis tag
# B2: h4B10-2 (VH3-15-Vκ3-20) scFv (scFv)
# scFv: MEVQLVESGGGLVKPGGSLRLSCAASGFTFSTYGMSWVRQAPGKGLEWVATISGGGSNTYYSDSVKGRFTISRDDSKNTLYLQMNSLKTEDTAVYYCARQRDSAWFASWGQGTLVTVSSGGGGSGGGGSGGGGSEIVLTQSPGTLSLSPGERATLSCRASENVDDYGVSFMNWYQQKPGQAPRLLIYPASNQGSGIPDRFSGSGSGTDFTLTISRLEPEDFAVYYCQQSKEVPWTFGQGTKVEIKGSGDYKDDDDKGSGHHHHHH
# notes: as for B1
# B3: h1E9-1 (VH3-21-Vκ1-9) scFv (scFv)
# scFv: MEVQLVESGGGLVKPGGSLRLSCAASGFTFSTFGMSWVRQAPGKGLEWVSTISGGGSDTYYPDSVQGRFTISRDNAKNSLYLQMNSLRAEDTAVYYCARQGYDVYSWFAYWGQGTLVTVSSGGGGSGGGGSGGGGSDIQLTQSPSFLSASVGDRVTITCRASESVDNSGISFMSWYQQKPGKAPKLLIYTASNQGSGVPSRFSGSGSGTEFTLTISSLQPEDFATYYCQQSKEVPWTFGQGTKVEIKGSGDYKDDDDKGSGHHHHHH
# notes: as for B1
# B4: h1E9-4 (VH3-7-Vκ1-9) scFv (scFv)
# scFv: MEVQLVESGGGLVQPGGSLRLSCAASGFTFSTFGMSWVRQAPGKGLEWVATISGGGSDTYYPDSVQGRFTISRDNAKNSLYLQMNSLRAEDTAVYYCARQGYDVYSWFAYWGQGTLVTVSSGGGGSGGGGSGGGGSDIQLTQSPSFLSASVGDRVTITCRASESVDNSGISFMSWYQQKPGKAPKLLIYTASNQGSGVPSRFSGSGSGTEFTLTISSLQPEDFATYYCQQSKEVPWTFGQGTKVEIKGSGDYKDDDDKGSGHHHHHH
# notes: as for B1
# B5: h1E9-HC3 × h1E9-LC1 IgG (antibody)
# heavy: not shown
# light: MDIQLTQSPSSLSASVGDRVTITCRASESVDNSGISFMSWYQQKPGKAPKLLIYTASNQGSGVPSRFSGSGSGTDFTFTISSLQPEDIATYYCQQSKEVPWTFGQGTKVEIKRTVAAPSVFIFPPSDEQLKSGTASVVCLLNNFYPREAKVQWKVDNALQSGNSQESVTEQDSKDSTYSLSSTLTLSKADYEKHKVYACEVTHQGLSSPVTKSFNRGEC
# notes: Humanized IgG; heavy chain with C-terminal FlagHis tag
# B6: h1E9-HC1 × h1E9-LC1 IgG (antibody)
# heavy: not shown
# light: MDIQLTQSPSSLSASVGDRVTITCRASESVDNSGISFMSWYQQKPGKAPKLLIYTASNQGSGVPSRFSGSGSGTDFTFTISSLQPEDIATYYCQQSKEVPWTFGQGTKVEIKRTVAAPSVFIFPPSDEQLKSGTASVVCLLNNFYPREAKVQWKVDNALQSGNSQESVTEQDSKDSTYSLSSTLTLSKADYEKHKVYACEVTHQGLSSPVTKSFNRGEC
# notes: as for B5
# B7: h1E9-5-IgG-HC-FLAG-HIS × h1E9-LC1 IgG (antibody)
# heavy: not shown
# light: MDIQLTQSPSSLSASVGDRVTITCRASESVDNSGISFMSWYQQKPGKAPKLLIYTASNQGSGVPSRFSGSGSGTDFTFTISSLQPEDIATYYCQQSKEVPWTFGQGTKVEIKRTVAAPSVFIFPPSDEQLKSGTASVVCLLNNFYPREAKVQWKVDNALQSGNSQESVTEQDSKDSTYSLSSTLTLSKADYEKHKVYACEVTHQGLSSPVTKSFNRGEC
# notes: also called h1E9-5 HC × h1E9-LC1
# B8: h1E9-2 (VH3-21-Vκ3-11) scFv (scFv)
# scFv: MEVQLVESGGGLVKPGGSLRLSCAASGFTFSTFGMSWVRQAPGKGLEWVSTISGGGSDTYYPDSVQGRFTISRDNAKNSLYLQMNSLRAEDTAVYYCARQGYDVYSWFAYWGQGTLVTVSSGGGGSGGGGSGGGGSEIVLTQSPATLSLSPGERATLSCRASESVDNSGISFMSWYQQKPGQAPRLLIYTASNQGSGIPARFSGSGSGTDFTLTISSLEPEDFAVYYCQQSKEVPWTFGQGTKVEIKGSGDYKDDDDKGSGHHHHHH
# notes: as for B1
# B9: h1E9-5 (VH3-7-Vκ3-11) scFv (scFv)
# scFv: MEVQLVESGGGLVQPGGSLRLSCAASGFTFSTFGMSWVRQAPGKGLEWVATISGGGSDTYYPDSVQGRFTISRDNAKNSLYLQMNSLRAEDTAVYYCARQGYDVYSWFAYWGQGTLVTVSSGGGGSGGGGSGGGGSEIVLTQSPATLSLSPGERATLSCRASESVDNSGISFMSWYQQKPGQAPRLLIYTASNQGSGIPARFSGSGSGTDFTLTISSLEPEDFAVYYCQQSKEVPWTFGQGTKVEIKGSGDYKDDDDKGSGHHHHHH
# notes: as for B1
# B10: m4B10 scFv (scFv)
# scFv: MEVKLVESGGGLVKPGGSLKLSCAASGFTFSTYGMSWVRQTPEKRLQWVATISGGGSNTYYSDSVKGRFTISRDNAKNNLYLQMSSLRSEDTALYYCARQRDSAWFASWGQGTLVTVSAGGGGSGGGGSGGGGSDIVLTQSPASLAVSLGQRATISCRASENVDDYGVSFMNWFQQKPGQPPKLLIYPASNQGSGVPARFSGSGSGTDFSLNIHPMEEDDTAMYFCQQSKEVPWTFGGGTKLEIKGSGDYKDDDDKGSGHHHHHH
# notes: Mouse single-chain antibody, whole chain with FlagHis tag
# B11: m1B10 scFv (scFv)
# scFv: MSDVQLQESGPGLVKPSQSLSLTCTVTGHSITSDYAWNWIRQFPGNKLEWMGYISYSGRTSYNPSLTSRISITRDTSKNQFFLQLNSVTTEDTATYYCARGYALDYWGQGTSVTVSSGGGGSGGGGSGGGGSQIVLSQSPAILSASPGEKVTMTCRTSSSVNYMHWFQQKPGSSPKPWIYATSKLASGVPARFSGSGSGTSYSLTISRVEAEDAATYFCQQWISDPWTFGGGTKLEIKGSGDYKDDDDKGSGHHHHHH
# notes: as for B10
# B12: h4B10-3 (VH3-15-Vκ4-1) scFv (scFv)
# scFv: MEVQLVESGGGLVKPGGSLRLSCAASGFTFSTYGMSWVRQAPGKGLEWVATISGGGSNTYYSDSVKGRFTISRDDSKNTLYLQMNSLKTEDTAVYYCARQRDSAWFASWGQGTLVTVSSGGGGSGGGGSGGGGSDIVMTQSPDSLAVSLGERATINCRASENVDDYGVSFMNWYQQKPGQPPKLLIYPASNQGSGVPDRFSGSGSGTDFTLTISSLQAEDVAVYYCQQSKEVPWTFGGGTKLEIKGSGDYKDDDDKGSGHHHHHH
# notes: as for B1
# Assays:
# [1] = biological target: T1, Human PD-1 (ACROBiosystems, Inc., Catalog No. PD1-H5221) (human, UniProt Q15116 25-167); assay: SPR (Biacore), scFv captured on anti-FLAG, PD-1 as analyte
# T1 construct: Bought recombinant protein; also called huPD1-His; PD-1-his; not shown: His tag of the bought protein (huPD1-His)
# T1 sequence (Q15116 25-167 limits assumed): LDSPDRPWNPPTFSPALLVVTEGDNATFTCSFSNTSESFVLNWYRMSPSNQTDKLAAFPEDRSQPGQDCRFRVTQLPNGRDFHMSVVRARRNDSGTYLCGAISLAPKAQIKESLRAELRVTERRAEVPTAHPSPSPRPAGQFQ
# Protocol: Monoclonal anti-FLAG M2 IgG (Sigma-Aldrich #F9291) was immobilized onto a CMS chip (GE Life Sciences) using amine coupling chemistry (from Amine Coupling Kit, GE Life Sciences). The immobilization steps were carried out at a flow rate of 25 μl/min in 1×HBS-EP+ buffer (GE Life Sciences; 10× Stock diluted before use). The sensor surfaces were activated for 7 min with a mixture of NHS (0.05 M) and EDC (0.2 M). The Anti-FLAG M2 IgG was injected over all 4 flow cells at a concentration of 25 μg/ml in 10 mM sodium acetate, pH 4.5, for 7 min. Ethanolamine (1 M, pH 8.5) was injected for 7 min to block any remaining activated groups.
# Off-rate and kinetic binding experiments were performed at 25° C. using 1×HBS-EP+ buffer. Test and control antibodies were injected over the Anti-FLAG surface at concentrations of 5-10 μg/mL for 12 seconds at a flow rate of 10 μl/min on flow cells 2, 3 and 4, followed by a buffer wash for 30 seconds at the same flow rate. Kinetic characterization of antibody samples was carried out with a single concentration of antigen (for off-rate ranking) or a 1:2 dilution series of antigen (for kinetic characterization) and 1 injection of 0 nM antigen (i.e., buffer alone). After capturing ligand (anti-PD-1 antibody) on the anti-FLAG surface, the analyte (huPD1-His) was bound at 50, 25, 12.5, 6.25 and 0 nM for 180 seconds, followed by a 600 second dissociation phase at a flow rate of 50 μl/min. Between each ligand capture and analyte binding cycle, regeneration was carried out using 2 injections of 10 mM glycine pH 2.0 for 30 seconds at 30 μL/min, followed by a 30 second buffer wash step.
# The data was fit with the Biacore T200 Evaluation software, using a 1:1 Langmuir binding model. KD (affinity, nM) was determined as a ratio of the kinetic rate constants calculated from the fits of the association and dissociation phases.
# [2] = biological target: T1, Human PD-1 (ACROBiosystems, Inc., …); assay: SPR (Biacore), IgG as ligand, PD-1-his as sample
# [3] = biological target: T2, human PD-1 expressed on the cell surface (CHO-PD1 cells) (human, UniProt Q15116 25-288); assay: FACS cell binding on CHO cells expressing human PD-1
# T2 construct: Also used here as the target for native PD-1 on human PBMC / T cells in the functional (IFN-g) assays; also called CHO cell line overexpressing human PD-1; Cell-Surface Human PD-1 antigen
# T2 sequence (Q15116 25-288 limits assumed): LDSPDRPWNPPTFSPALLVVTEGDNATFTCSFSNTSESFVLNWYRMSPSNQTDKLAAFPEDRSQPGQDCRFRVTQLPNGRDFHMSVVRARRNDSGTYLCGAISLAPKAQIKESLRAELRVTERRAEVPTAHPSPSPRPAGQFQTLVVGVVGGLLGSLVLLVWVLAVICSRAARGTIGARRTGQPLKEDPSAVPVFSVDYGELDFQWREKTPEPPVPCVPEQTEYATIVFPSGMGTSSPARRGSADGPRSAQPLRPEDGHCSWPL
# Protocol: (§1) A mix of parental CHO cells and CHO-PD1 cells was prepared as follows: Parental CHO cells were washed 2× in PBS then incubated in PBS containing 1 μM CellTrace™ Oregon Green488® (Life Technologies) at 37° C. for 30 minutes. Cells were then washed 2× with RPMI w/10% fetal calf serum (FCS), washed 2× with FACS buffer (PBS w/2% FCS), suspended thoroughly in ice-cold FACS buffer at a final concentration of 2×10⁶ cells/mL and kept on ice. CHO-PD1 cells were similarly washed with FACS buffer and kept on ice at 2×10⁶ cells/mL. Parental CHO cells and CHO-PD1 cells were then mixed to obtain a 1:1 cell suspension and seeded at 100 μL per well on 96 well polypropylene plates. Plates were spun at 1500 rpm for 5 minutes and cell pellets were suspended in 50 μL FACS buffer containing 6-12 point dilutions of anti-PD-1 variants starting from concentrations of −100-200 nM antibody, dispensed using BioMek FX (Beckman Coulter). Cells were then incubated on ice for 1 hr, washed with FACS buffer and incubated for 1 hr on ice with 50 μL FACS buffer containing 2.5 μg/ml R-phycoerythrin-conjugated goat anti-Human IgG (Jackson ImmunoResearch) or AF647-conjugated goat anti-mouse IgG (Life Technologies) dispensed using BioMek FX (Beckman Coulter). Cells were then washed 2× with FACS buffer and fixed for 10 minutes in 200 μL PBS with 2% paraformaldehyde (PFA) prior to fluorescence detection. Samples were acquired using a Becton Dickinson LSRII FACS. Mean Fluorescence Intensity of PD-1 antibody binding was analyzed using FlowJo® software (Tree Star, Inc.).
# The affinity of the IgGs for cell-surface expressed human PD-1 were measured according to Example 6, above.
# [4] = biological target: T3, cynomolgus PD-1 expressed on CHO cells (cynomolgus, UniProt B0LAJ3 25-288); assay: FACS cell binding on CHO cells expressing cynomolgus PD-1
# T3 construct: also called Cell-Surface Cynomolgus PD-1 antigen
# T3 sequence (B0LAJ3 entry or part of it limits assumed, form in doubt): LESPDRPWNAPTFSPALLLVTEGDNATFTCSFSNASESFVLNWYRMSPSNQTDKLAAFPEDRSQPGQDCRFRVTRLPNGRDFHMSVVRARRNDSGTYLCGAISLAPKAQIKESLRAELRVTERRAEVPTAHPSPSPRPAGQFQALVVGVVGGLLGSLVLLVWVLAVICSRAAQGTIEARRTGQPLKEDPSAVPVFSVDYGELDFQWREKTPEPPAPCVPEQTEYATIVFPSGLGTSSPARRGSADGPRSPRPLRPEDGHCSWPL
# Protocol: as §1
# The affinity of the IgGs for cell-surface expressed cynomolgus PD-1 were measured according to Example 6, above.
Binder,Kd [1],koff [1],kon [1],Kd [2],Kd [3],Kd [4]
B1,2.47 nM,0.00299 s⁻¹,1.21e+06 M⁻¹ s⁻¹,,,
B2,2.79 nM,0.00324 s⁻¹,1.16e+06 M⁻¹ s⁻¹,,,
B3,2.58 nM,0.000468 s⁻¹,182000 M⁻¹ s⁻¹,,,
B4,3.66 nM,0.000679 s⁻¹,185000 M⁻¹ s⁻¹,,,
B5,,,,3.6 nM,8 nM,4 nM
B6,,,,5.08 nM,6 nM,7 nM
B7,,,,3.7 nM,9 nM,4 nM
B8,38.5 nM,0.00182 s⁻¹,47400 M⁻¹ s⁻¹,,,
B9,3.15 nM,0.000628 s⁻¹,200000 M⁻¹ s⁻¹,,,
B10,5.14 nM,0.000417 s⁻¹,81200 M⁻¹ s⁻¹,,,
B11,12.8 nM,0.00239 s⁻¹,186000 M⁻¹ s⁻¹,,,
B12,1.2 nM,0.000617 s⁻¹,513000 M⁻¹ s⁻¹,,,
